Reference: paper PMC8363748, “The conformational stability of pro-apoptotic BAX is dictated by discrete residues of the protein core” (Nature Communications, 2021)

B1: N-His6-GFP-BAX α2–α5 (53–128), C62S/C126S (domain or fragment, human, UniProt Q07812 53-128, looked up)
chain: DASTKKLSESLKRIGDELDSNMELQRMIAAVDTDSPREVFFRVAADMFSDGNFNWGRVVALFYFASKLVLKALSTK
notes: BAX α2–α5 truncate, residues 53–128, human; also called BAX α2–α5 WT; wild-type BAX α2–α5; source: E. coli, purified (Ni-NTA, SEC Superdex S-200); not shown: His6, N-terminal, kept; GFP, N-terminal, kept
B2: GFP-BAX α2–α5 F114A/Y115A (domain or fragment, human, UniProt Q07812 53-128, looked up)
chain: DASTKKLSESLKRIGDELDSNMELQRMIAAVDTDSPREVFFRVAADMFSDGNFNWGRVVALAAFASKLVLKALSTK
notes: BAX α2–α5 truncate, residues 53–128, human; also called double alanine mutant; source: E. coli, purified (Ni-NTA, SEC Superdex S-200); not shown: His6, N-terminal, kept; GFP, N-terminal, kept
B3: GFP-BAX α2–α5 F114A/F116A (domain or fragment, human, UniProt Q07812 53-128, looked up)
chain: DASTKKLSESLKRIGDELDSNMELQRMIAAVDTDSPREVFFRVAADMFSDGNFNWGRVVALAYAASKLVLKALSTK
notes: as for B2
B4: GFP-BAX α2–α5 Y115A/F116A (domain or fragment, human, UniProt Q07812 53-128, looked up)
chain: DASTKKLSESLKRIGDELDSNMELQRMIAAVDTDSPREVFFRVAADMFSDGNFNWGRVVALFAAASKLVLKALSTK
notes: as for B2
B5: GFP-BAX α2–α5 L113A/F114A/Y115A (domain or fragment, human, UniProt Q07812 53-128, looked up)
chain: DASTKKLSESLKRIGDELDSNMELQRMIAAVDTDSPREVFFRVAADMFSDGNFNWGRVVAAAAFASKLVLKALSTK
notes: BAX α2–α5 truncate, residues 53–128, human; also called triple BAX α2–α5 mutant L113A/F114A/Y115A; source: E. coli, purified (Ni-NTA, SEC Superdex S-200); not shown: His6, N-terminal, kept; GFP, N-terminal, kept
B6: GFP-BAX α2–α5 L113A/F114A/F116A (domain or fragment, human, UniProt Q07812 53-128, looked up)
chain: DASTKKLSESLKRIGDELDSNMELQRMIAAVDTDSPREVFFRVAADMFSDGNFNWGRVVAAAYAASKLVLKALSTK
notes: BAX α2–α5 truncate, residues 53–128, human; also called triple BAX α2–α5 mutant L113A/F114A/F116A; source: E. coli, purified (Ni-NTA, SEC Superdex S-200); not shown: His6, N-terminal, kept; GFP, N-terminal, kept
B7: GFP-BAX α2–α5 L113A/Y115A/F116A (domain or fragment, human, UniProt Q07812 53-128, looked up)
chain: DASTKKLSESLKRIGDELDSNMELQRMIAAVDTDSPREVFFRVAADMFSDGNFNWGRVVAAFAAASKLVLKALSTK
notes: BAX α2–α5 truncate, residues 53–128, human; also called triple alanine mutant L113A/Y115A/F116A; source: E. coli, purified (Ni-NTA, SEC Superdex S-200); not shown: His6, N-terminal, kept; GFP, N-terminal, kept
B8: GFP-BAX α2–α5 F114A/Y115A/F116A (domain or fragment, human, UniProt Q07812 53-128, looked up)
chain: DASTKKLSESLKRIGDELDSNMELQRMIAAVDTDSPREVFFRVAADMFSDGNFNWGRVVALAAAASKLVLKALSTK
notes: BAX α2–α5 truncate, residues 53–128, human; also called triple alanine mutant F114A/Y115A/F116A; source: E. coli, purified (Ni-NTA, SEC Superdex S-200); not shown: His6, N-terminal, kept; GFP, N-terminal, kept
B9: GFP-BAX α2–α5 L113A (domain or fragment, human, UniProt Q07812 53-128, looked up)
chain: DASTKKLSESLKRIGDELDSNMELQRMIAAVDTDSPREVFFRVAADMFSDGNFNWGRVVAAFYFASKLVLKALSTK
notes: BAX α2–α5 truncate, residues 53–128, human; source: E. coli, purified (Ni-NTA, SEC Superdex S-200); not shown: His6, N-terminal, kept; GFP, N-terminal, kept
B10: GFP-BAX α2–α5 F114A (domain or fragment, human, UniProt Q07812 53-128, looked up)
chain: DASTKKLSESLKRIGDELDSNMELQRMIAAVDTDSPREVFFRVAADMFSDGNFNWGRVVALAYFASKLVLKALSTK
notes: as for B9
B11: GFP-BAX α2–α5 Y115A (domain or fragment, human, UniProt Q07812 53-128, looked up)
chain: DASTKKLSESLKRIGDELDSNMELQRMIAAVDTDSPREVFFRVAADMFSDGNFNWGRVVALFAFASKLVLKALSTK
notes: as for B9
B12: GFP-BAX α2–α5 F116A (domain or fragment, human, UniProt Q07812 53-128, looked up)
chain: DASTKKLSESLKRIGDELDSNMELQRMIAAVDTDSPREVFFRVAADMFSDGNFNWGRVVALFYAASKLVLKALSTK
notes: as for B9
B13: GFP-BAX α2–α5 L113A/F114A (domain or fragment, human, UniProt Q07812 53-128, looked up)
chain: DASTKKLSESLKRIGDELDSNMELQRMIAAVDTDSPREVFFRVAADMFSDGNFNWGRVVAAAYFASKLVLKALSTK
notes: as for B2
B14: GFP-BAX α2–α5 L113A/Y115A (domain or fragment, human, UniProt Q07812 53-128, looked up)
chain: DASTKKLSESLKRIGDELDSNMELQRMIAAVDTDSPREVFFRVAADMFSDGNFNWGRVVAAFAFASKLVLKALSTK
notes: as for B2
B15: GFP-BAX α2–α5 L113A/F116A (domain or fragment, human, UniProt Q07812 53-128, looked up)
chain: DASTKKLSESLKRIGDELDSNMELQRMIAAVDTDSPREVFFRVAADMFSDGNFNWGRVVAAFYAASKLVLKALSTK
notes: as for B2

Target: the molecule itself
Test: SEC; N-His6-GFP-BAX α2–α5 proteins, Superdex S-200, TBS; the dimer is observed as a GFP-mediated dimer/oligomer of dimers
B1: binds.
B2: binds.
B3: binds.
B4: binds.
B5: binds.
B6: binds.
B7: binds.
B8: binds.
B9: binds.
B10: binds.
B11: binds.
B12: binds.
B13: binds.
B14: binds.
B15: binds.
